Measurements from the DeepSol protein solubility set.

Experiment: soluble on expression in E. coli; label from the status in PepcDB or PDB records

Row | Sequence | soluble on expression in E. coli
1 | MNLIDNHIHTNFSSDGKDSMEDTIKKAISIGVRYLTFTDHLEHDEDRGFCINYNDYVPVFNKFKEKYKKDIELLLGVEVGYRKHLKNEIEEIINSNPFDFVLCSTHTIDNVPVPSKAYFKGLSKEDAYYKYFNSILETNREFGDYNIYGHLDYISRYGIYSDNRVIYNDFKDVIDEVLKSIINNGSGIELNTSGYRYGLNAIHPNEDILKRYKELGGFIVTVGSDSHRVEDICKDFDVAYDMLKYLDFKYVSLFKERETYFVNIEKVKSNNIA | not soluble
2 | SSNPRSLEEEKYDMSGARLALILCVTKAREGSEEDLDALEHMFRQLRFESTMKRDPTAEQFQEELEKFQQAIDSREDPVSCAFVVLMAHGREGFLKGEDGEMVKLENLFEALNNKNCQALRAKPKVYIIQACRGEQRDPGETVGGDEIVMVIKDSPQTIPTYTDALHVYSTVEGYIAYRHDQKGSCFIQTLVDVFTKRKGHILELLTEVTRRMAEAELVQEGKARKTNPEIQSTLRKRLYLQ | soluble
3 | MTTFRQHRWQSFLQGYEQRARILISCPDRPGIVAAVTSFLYEQGANIVESSQYSTDPEGGTFFLRLEFDCPNIAERKEEIEAAFAPIAAEFEMRWQLRLHNDIRRIAIFVSKAEHCLLELLWQWQAGELIADIALVISNHPDLRETVESFGIPYVHIPVTKETKADAEAEQIRLLRDYQIDTIVLARYMQILSPAFVAEFSGRIINIHHSFLPAFIGARPYERAYERGVKLIGATSHYVTDDLDEGPIIEQDVARVDHRHHPDDLKRIGRLIEKTVLARALRWHLEDRVIIHGNKTIVFY | soluble
4 | MGSDKIHHHHHHMNWWLDPRIFEADNSELAMVLHPEWLNRRDVETIICDGSVRAGKTLIMSMSYVLWSMTNYNEEQFGIAGKTIGSLRRNVIRPLMRMLRGRGYEVKDKRADNLLVISHNGVTNYYYLFGGKDEGSQDLVQGITVAGFFFDEVALMPESFVNQATARASVDGAKFWFNCNPAGPYHWFKLEWLDQLDQHKAIHIHFTMKDNPSLSPETIDRYERMYTGVFYQRFILGQWVLSDGIIYDNFDKNKMVVKNPQGTARKYAVSIDYGTLNPTVFLMWGLYGDTWHLTKMYYYDGRHKHKQKTDEEYSAELDRFEDGLNPVEIIDPSAASFITLRRRGGHHVIKADNDVLDGIRKTGMAMNTGKIVFSPDLADLFKEFASYVWDEKAAEHGEDKPVKQHDHAMDAMRYFVMYMIGRQPTIQTFKLG | not soluble
5 | MGVHVVLYQPEIPANTGNIARTCAATGTELHLIRPLGFSTDDKMLKRAGLDYWQHVKITYYDSIEEFYEKNKDGEFFYLTKYGEKAHTAFDYSKREKDYYFVFGRETNGLPANVIEENFDHCLRIPMTDKVRSLNLSNTAAILIYEAFRQQNYPGLDLEIVY | not soluble
6 | MNKVWLTGLLTATASGVFSASTLAATEITWWHAMGGQLGETVNQLATDFNASQSDYKLTPVYKGSYTETLTAGIAAFRAGQAPNILQVFDAGAATIMSSKGVAKPVQDLMIESGYPFTAQDYIAGVRNFYADNTGKMVGMPFNSSTPVLYYNKDMLASVNAQAPQTYEQLEQVAAKLAEKGQAGFAQSLTPWIMFENFKSRHNLPLSDKQNGYQDLSTKIMFNSDDMLMHVKKLKEWSDKGYYKYYGSDWDANQTPFERGEVAMWMGSSGSFGGLRNRVKFNLGTTYLPYWESVTKNPTHTFIGGAALFALQGHTPAQDKGVAAFFAYLTKPETQMNWHKTTGYVPVTNAAYDLTKQSGYYQENPDAEVGVKQLSLPDGEWTKGYRLGYYPQVREVMHREFDNIFSGRSTVESSLNKVEDESAKLLNRFARTVQ | not soluble
7 | MKDNEQKAGSVADQKNKIRERYKGVSIDELDVIPALPQEDIFAVENEQRVAVYARVSTDDPRQTSSYELQKNHYHDVISKSPNWKLVQIYADEGISGTSLQHRDQFKLMIEDCKKGEIDLIVTKSVSRFARNVVDCIGYVRELLALPHPVGVFFETERLNTFDPKSEMVLSFMATLAQEESHTKSEIMNASIEMRFRRGIFLTPTLLGYDHDEDGNLVVNEGEAKIVRLIFMMYLNGCTCQEIADTMTELGCETKKGNTVWSPGSILQILQNERHCGDVLARKTYTPNYLNHKSKKNMQNRPQYRKRNHHEAIISRDDFIAVQRLISNAKYGNKGILPELKVISNGVLKGFVSINPRWAGFKENDYISASLSVYDQMEQLSPSASSVEVQSGDFDLRGYEIARSQFFDGTDRITVTFSLNDIKFSTAAVRKLNSTLVELLLHPNKHLFAVRTASQAHRNAMQWAKKRGELSVPRAVSGTAFMPTVYALLGWNTDCRYRITGIRRGNGNDAVLLFNLEETEIFIPSDVIDEQQTSDARTDVKPLEHHHHHH | soluble
8 | MESTVTTQEEKLAYQQSVEMASNYANQFDADMKANLAIARTISTTMESYETADRDEALLILENLLRDNPHLLGTYVAFEPDAFDGKDAEYTNSPAHDGTGRFVPYWNKMNGTASVAPLLHYDSSDYYQLPKATEKDVLTEPYFYEGVFMVSYVSPIMKEGEFAGIGGVDVSLEYVDEVVSKVRTFDTGYAFMVSNSGVILSHPTHKDWIGKKDLYDFGGEELEKASRDIKNGIGGHLETADPTTGKTVILFYEPVETGDFAFVLVVPKEEMLAGVADLRERLLEHHHHHH | soluble
9 | MGSDKIHHHHHHMIRLSNENTIFFMDKENVPIASCQSGDTVIFETKDCFSDQITNEEQALTSIDFNRVNPATGPLYVEGARRGDMLEIEILDIKVGKQGVMTAAPGLGALGESLNSPTTKLFPIEGDDVVYSTGLRLPLQPMIGVIGTAPPGEPINNGTPGPHGGNLDTKDIKPGTTVYLPVEVDGALLALGDLHAAMGDGEILICGVEIAGTVTLKVNVKKERMFPLPALKTDTHFMTIASAETLDAAAVQATKNMATFLANRTALSIEEAGMLLSGAGDLYVSQIVNPLKTARFSLALHYFEKLGVDLCN | not soluble
10 | GSPGIHMLGGSSDAGLATAAARGQVETVRQLLEAGADPNALNRFGRRPIQVMMMGSAQVAELLLLHGAEPNCADPATLTRPVHDAAREGFLDTLVVLHRAGARLDVCDAWGRLPVDLAEEQGHRDIARYLHAATGD | soluble
11 | MAHHHHHHMRPVTRSPLLVAAVVVAATLCLNGDNAILSLSSGVRLAHANGPITKDQCFILNPQPTVTSCNAYLPPIVDLYGSLPYDTTPDYADCVKERCLCTGAATSTAIKTSGFFCNSSGWMESGYTTCNVLVDCFSKFWRCINRALYMRYLTDRENLDSGEVDLITDLISHGSHPGEPFDITDTFRSCRLMMCAAANSRQNCGLVTCLPNYTQCDEYIRPPPLPYTHPLCTQGCRAALLMMALTIAAVSFSACCFCCCPAQVRISEPVLMEEVPAHKVELSSMRSEVEAQARRHRTNDPYTQ | not soluble
12 | MSLNYDWIKTRATFDEPKAAVIDPFKGTEWTYQDLNIRAENLANYLQEQGVQRGDVVGIFSPNDVALLDLLFASFKLGAVYLPINWRLKTQEIESVIADSDVKLIFYSAKHLSSLEGIADELIHMDIDSKTYDDIVDPTHHRPFTTVSVEGDDLASLMYTSGTTGLPKGVMFSYDSFVNNPINTALTYKVYASYTTIISTPMFHVLGFNDLTIPLLMAGGTLVLQRYFNGESLNDLMAQYQPNFLIQIPTMYYAMLVADNFDLKNFANIEFLIQGGAAPLPTVQKKFVSLGIPIITGYGLTEAPLVSVNTAANNERKPASIGQPVMFTDTRIFDDNFEEVQVGEIGELGVRGNNVTPGYWNKPEETAKAFSGEFFLTGDLAKIDEDGDVYIVDRRKEMIITGGENVLPSEVERVLSEHPLVAQGVVVGYDSPKYGESVSAAVVLTEDDPDFEQKLDAHMREHIAGYKIPRLYLKLTHIPLNSTSKPDKLEIQKYMNDKAQKQDQSKDEGHHHHHH | not soluble
13 | MHHHHHHSSGVDLGTENLYFQSMATGQKLMRAVRVFEFGGPEVLKLRSDIAVPIPKDHQVLIKVHACGVNPVETYIRSGTYSRKPLLPYTPGSDVAGVIEAVGDNASAFKKGDRVFTSSTISGGYAEYALAADHTVYKLPEKLDFKQGAAIGIPYFTAYRALIHSACVKAGESVLVHGASGGVGLAACQIARAYGLKILGTAGTEEGQKIVLQNGAHEVFNHREVNYIDKIKKYVGEKGIDIIIEMLANVNLSKDLSLLSHGGRVIVVGSRGTIEINPRDTMAKESSIIGVTLFSSTKEEFQQYAAALQAGMEIGWLKPVIGSQYPLEKVAEAHENIIHGSGATGKMILLL | soluble
14 | DNYNVEGASASFAVGYERGVKQLAEGLLLSIYAELDWAAFRSVSDKRSLPFSDDSAQNRFRFLAGAGVHKRLNPNIELYARGAVGASFFPENNGSSSRELKGGFNVSLRVGLSCSLRDNFAVFIDTGTSDIVRGGLALMW | not soluble
15 | TLAQPVTIREIAEPPKIRLPRHLRQTYIRKVGEQLNLVVPFQGKPRPQVVWTKGGAPLDTSRVHVRTSDFDTVFFVRQAARSDSGEYELSVQIENMKDTATIRIRVVEKAG | soluble
16 | MKQIKNTHYEGERPLFASHGLYLEEVTIHAGESALKECSDIEAVNCRFEGKYPFWHNDGFVVKNCLFTEGARAALWYSRNLKMKDTLVEAPKMFREMDGVELENVQLPNALETLWYCRNVELNNVKIDKGDYLFIHGEDIRIKNFVLNGNYSFQYCKNVEIRHAEIHSKDAFWNTENVTVYDSVLDGEYLGWHSKNLRLVNCKISGTQPLCYAHDLIMENCTMADDADLAFEHSSVKATIKGPVHSVKNPRTGNIVAESFGTIILDENLKAPGNCELKLWDGLTCFD | soluble
17 | MSSGVAAPQPSSCVPSRVSVLSMDFEDIYRFFQDPPPHYLSKELAVCYVLAVLRHEDSYGTELIQHLETHWPNYRLSDTVLYTALKFLEDEQIISGYWKKVEGRGRPRRMYQLAQANDDRSRDLAQLWERYLSSSAATDRQLIPVEAR | soluble
18 | MSLEDSKASLETRNFYMNRDFRDGPGQSKREEWAQGFILNLQSGYTQGTVGFGLDAMGMLGVKLDSGRGRSGTGLLPKDSDGRAPDTYSKLGLTAKVKVSQSELKVGTLIPKLPSVQPNNGRIFPQIFEGALLTSKEIKDLGFTAGRLEKTKIRDSSDSEDLALNDKNGRFAGVSADHFDLGGLDYKLTDQLTASYHYSNLQDVYRQHFVGLLHSWPIGPGELTSDLRFARSTDSGSAKAGGIDNKSLNGMFTYSLGNHAFGAAWQRMNGDDAFPYLEGSNPYLVNFVQVNDFAGPKERSWQLRYDYDFVGLGIPGLTFMTRYVKGDNVELAGQSGEGREWERNTELQYVFQSGALKNLGIRWRNATFRSNFTRDIDENRLIVSYTLPIWEGHHHHHH | soluble
19 | GGDVLERQMALMAQAAQRVQDMKRFVWDSLDSMPEPVVVTDLAGTVLIANHAAKRYCARLSAPAPEGRPLRVAFGELSFVKTVDGNAEQDVEIRSHWPAALDPTRDYENDVMERGIEVRDLSGLDHLLRYAPCTNAQGNVTGWIASLVDVTALHAAERQREEALHLLSHDM | soluble
20 | MGSDKIHHHHHHMALEPQIKSAPTPVILIVEPYGGSIRQQNPNLPMVFWDDAALTRGDGIFETLLIRDGHACNVRRHGERFKASAALLGLPEPILEDWEKATQMGIESWYSHPNAGEASCTWTLSRGRSSTGLASGWLTITPVSSDKLAQREHGVSVMTSSRGYSIDTGLPGIGKATRGELSKVERTPAPWLTVGAKTLAYAANMAALRYAKSNGFDDVIFTDGDRVLEGATSTVVSFKGDKIRTPSPGGDILPGTTQAALFAHATEKGWRCKEKDLSIDDLFGADSVWLVSSVRGPVRVTRLDGHKLRKPDNEKEIKALITKALG | not soluble
21 | PTHIAIGIYFNPEIAPAPFISLIETNQCALAVRKYANEVGIPTVRDVKLARKLYKTHTKYSFVDFEHLDEVLRLIVWLEQVENTHLEHHHHHH | soluble
